Laboratory results taken from patent US20230212294A1.

Legend:
Human B7-H3-his (human) [1] = molecular target: Human B7-H3-his (human) (UniProt Q5ZPR3); experiment: ELISA, antigen coated at 2 µg/mL
Human B7-H3-his (human) [2] = molecular target: Human B7-H3-his (human) (UniProt Q5ZPR3); experiment: ELISA, human B7-H3 at protein level (second run)

EC50 (Human B7-H3-his (human) [1]): 0.174 mg/L | EC50 (Human B7-H3-his (human) [2]): 0.233 mg/L
B1: IL-P6-D06 (antibody, V domains shown)
VH: QVQLQQSGPELVRPGVSVKISCKGSGYTFTDYAIHWVKQSHAKSLEWIGVINTYSGNTNYNQKFKGRATMTVDKSSSTAYMELARLTSEDSAIYFCARGVTYGSGYPYWYFDVWGAGTTVTVSS
VL: DIVMTQSQKFMSTSVGDRVSVTCKASQNVGTNVAWYQQKPGQSPKALIYSASYRYSGVPDRFTGSGSGTDFTLTISNVQSEDLAEYFCQQYNSYPYTFGGGTKLEIK
